Test system: MS2 coat protein
Test: apparent KD of MS2 coat protein; designed switch direction (-1 OFF switch, 1 ON switch): -1; higher = weaker reporter binding
Method in brief: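 Designed RNA switches were transcribed on Illumina chips by stalled E. coli RNA polymerase and titrated with SNAP-549-labelled MS2 coat protein from 0.7 or 1.5 nM, doubling to 3 µM. Step length ran from 0.8–1.5 h at the lowest concentration to 10–20 min at the highest. The apparent KD is the median over clusters for each design, from curve-fitted normalised cluster fluorescence.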

[1] = Eterna round: R95, input ligand: FMN 200 uM
[2] = Eterna round: R95, input ligand: microRNA oligo, concentration not stated
[3] = Eterna round: R95, input ligand: none
[4] = input ligand: microRNA oligo, concentration not stated

| Sequence | apparent KD of MS2 coat protein [1] [nM] | apparent KD of MS2 coat protein [2] [nM] | apparent KD of MS2 coat protein [3] [nM] | apparent KD of MS2 coat protein (input ligand: FMN 200 uM) [nM] | apparent KD of MS2 coat protein [4] [nM] | apparent KD of MS2 coat protein (input ligand: none) [nM] |
| --- | --- | --- | --- | --- | --- | --- |
| AGUACUAACACGAGAGUGUUAGUACUAUAAGCUUGUGUUACAUGAGGAUCACCCAUGUCCUCAUAAGCUCGUCUUAA [Mat - Sensor v3 - Turn-off var 2 - D64] (puzzle: Sensor v3, turn-off variant 2) | 33.3 | 185 | 35.8 | – | – | – |
| AGUACUAACACGAUAGUGUUAGUACUAUAAGCUUGUGUUACAUGAGGAUCACCCAUGUCCUCAUAAGCUCGUCUUAU [Mat - Sensor v3 - Turn-off var 2 - D78] (puzzle: Sensor v3, turn-off variant 2) | 95.6 | 118 | 101 | – | – | – |
| AGUACUAACACGGUUGUGUUAGUACAAUAAGCUUGUGAAACAUGAGGAUCACCCAUGUCCUCAUAAGCUCGUCUUAU [salish99_TOv2_r3_070] (Eterna round: R96, puzzle: Sensor v3, turn-off variant 2) | – | – | – | 15 | 464 | 17.3 |
| AGUACUAACACGGUUGUGUUAGUACAAUAAGCUUGUGAAACAUGAGGAUCACCCAUGUCCUCAUAAGCUCGUCUUAU [salish99_TOv2_r3_070] (puzzle: Sensor v3, turn-off variant 2) | 16.1 | 954 | 15.1 | – | – | – |
| AGUAGUUCAGGAUAUGAUGUUGAGUACAUGAGGAUCACCCAUGUAGGUCCUGGAUUUGCAUCAGAAGGGAAUAACU [JR_Ex5_Sub084] (Eterna round: R97, puzzle: Exclusion 5) | – | – | – | 59 | – | 26.7 |
| AGUAUGUUAGGAUAUUCCAUUGCUGUCAGCUCGGCGUCACAGAAGAAGGGACAUGAGGAUCACCCAUGUUAGGC [Eternabot (L1) Solution 96] (Eterna round: R97, puzzle: Exclusion 4) | – | – | – | 57.3 | – | 71.4 |
| AGUCAGGCGGUAGGAUAUCCAAACCGAGUGACCCUUACAUAACAUGAGGAUCACCCAUGUCGGUGGGAGAAGGGCCGUAAGGCA [Mat - Exclusion NG 2 - Mod of JL - D67] (Eterna round: R96, puzzle: Exclusion NG 2) | – | – | – | 517 | 349 | 113 |
| AGUCCGUCAGGAUAUGCAAUUGUGGACAUGAGGAUCACCCAUGUAACGUGGGCAUGGUUUGUAGAAGGGACGUGCA [EX5 #92] (Eterna round: R97, puzzle: Exclusion 5) | – | – | – | 129 | – | 95.3 |
| AGUCGGUCAGGAUAUGCAGACGUAGACAUGAGGAUCACCCAUGUGACGUGGGCCUGGUUUGUAGAAGGGACGAGCA [EX5 #83] (Eterna round: R97, puzzle: Exclusion 5) | – | – | – | 30.2 | – | 19.3 |
| AGUCUGCGAGGAUAUACAUGAGGAUCACCCAUGUGCGAGAAACUAGUGAGGUCGAUUGGUAGAAGGCGCGGACA [Mat - Exclusion 3 - Mod of JL D87] (puzzle: Exclusion 3) | 34.7 | 200 | 356 | – | – | – |
| AGUGUGAGGCAGGAUAUGCAAUUUGUAAGUAAUGCAGAAGGGUCUACAUGAGGAUCACCCAUGUGUGCGGUUGA [Ex6 #11] (Eterna round: R97, puzzle: Exclusion 6) | – | – | – | 447 | – | 246 |
| AGUGUGUGGCAGGAUAUGCAAUUAAUAGGUGAAGCAGAAGGGUCUACAUGAGGAUCACCCAUGUGUGCGGUUGA [Ex6 #22] (Eterna round: R97, puzzle: Exclusion 6) | – | – | – | 154 | – | 139 |
| AGUUAUUCAGGAUAUGGUGUGUUAUACAUGAGGAUCACCCAUGUGGGUCAUGGUUAGGCCUCAGAAGGGAAUGUUA [salish99_ex5_r4_125] (Eterna round: R97, puzzle: Exclusion 5) | – | – | – | 796 | – | 1100 |
| AGUUCACAUGAGGAUCACCCAUGUGAGGAUAUGGUUUCGCUGGCCGUAGCCAGUGGAACCAGAAGGCGCAUGAU [Mat - Exclusion 1 - JL Mod - D14] (Eterna round: R97, puzzle: Exclusion 1) | – | – | – | 38.6 | – | 34.5 |
| AGUUGGCGAGGAUAUACAUGAGGAUCACCCAUGUGAGAGAUACUAGUGAGGUCGAUUGGUAGAAGGCGCUGACA [Mat - Exclusion 3 - Mod of JL D80] (puzzle: Exclusion 3) | – | 91.5 | – | – | – | – |
| AGUUGGCGAGGAUAUACAUGAGGAUCACCCAUGUGAGAGAUACUAGUGAGGUCGAUUGGUAGAAGGCGCUGACA [Mat X3R4 m19] (Eterna round: R97, puzzle: Exclusion 3) | – | – | – | 70.8 | – | 106 |
| AUAAAUAAGGAGGAUAUCGUAUCGGAAACGAUACGAGAAGGCCUAACAUGAGGAUCACCCAUGUUCCUUAAAUA [Mat - Exclusion 6 - Eli Mod - D62] (puzzle: Exclusion 6) | 40.9 | 24.1 | 21.6 | – | – | – |

| Sequence | apparent KD of MS2 coat protein [1] [nM] | apparent KD of MS2 coat protein [2] [nM] | apparent KD of MS2 coat protein [3] [nM] | apparent KD of MS2 coat protein (input ligand: FMN 200 uM) [nM] | apparent KD of MS2 coat protein [4] [nM] | apparent KD of MS2 coat protein (input ligand: none) [nM] |
| --- | --- | --- | --- | --- | --- | --- |
| AUAAAUCAUGUAGGAUAUGUGUGGCGAAGCUAUACAGAAGGACAUGAGGAUCACCCAUGUUCUUCCGUCUGCGUACAGACGGAA [11th something] (Eterna round: R96, puzzle: Exclusion NG 1) | – | – | – | 228 | 19.1 | 29 |
| AUAACAAGCUUUUUGCUCGUCGUAUAUGACGCUCGAGUCACAUGAGGAUCACCCAUGUCUUCCUGUUUGAUUGUUGA [JR_SV3TOV2_Sub056] (puzzle: Sensor v3, turn-off variant 2) | 148 | 122 | 177 | – | – | – |
| AUAACUCUAGUCAGGAUAUGCGAGCAAGGAUUAGAGCAGAAGGGACAUGAGGAUCACCCAUGUGGUAGCUGGGU [Indiraa] (puzzle: Brourd's mod of Exclusion 4) | 33.6 | 47.3 | 77.5 | – | – | – |
| AUAAGUGAUAAGGAUAUUACUAGCCUCGGCUAGUGAGAAGGUAUCACAUGAGGAUCACCCAUGUGUUCCAAUAA [Ex6/7-B2] (Eterna round: R97, puzzle: Exclusion 6) | – | – | – | 297 | – | 119 |
| AUAAUGUGAGGAUAUCACGGCCCGAUGAGUACGGUAAACGAUGAGAAGGCACAUGAGGAUCACCCAUGUUCCUG [EX4 A.15] (Eterna round: R97, puzzle: Exclusion 4) | – | – | – | 47.8 | – | 11.4 |
| AUAAUGUGAGGAUAUCAGUCGACUAGCCUCGGCUAGUCGACUGAGAAGGCACAUGAGGAUCACCCAUGUGUUUC [E4/15-A2] (Eterna round: R97, puzzle: Exclusion 4) | – | – | – | 43.9 | – | 18.4 |
| AUAAUGUGAGGAUAUCAGUCGACUAGCCUCGGCUAGUCGACUGAGAAGGUACAUGAGGAUCACCCAUGUAGAUC [E4/20-A2] (Eterna round: R97, puzzle: Exclusion 4) | – | – | – | 84.3 | – | 26.4 |
| AUAAUGUGAGGAUAUCAGUCGACUAGCCUCGGCUAGUCGACUGAGAAGGUACAUGAGGAUCACCCAUGUGGUUC [E4/11-B2] (Eterna round: R97, puzzle: Exclusion 4) | – | – | – | 882 | – | 429 |
| AUAAUGUGAGGAUAUCAGUCGACUAGCGAUAGCUAGUCGACUGAGAAGGUACAUGAGGAUCACCCAUGUAGAUC [E4/20-A4] (Eterna round: R97, puzzle: Exclusion 4) | – | – | – | 70.6 | – | 31 |
| AUAAUGUGAGGAUAUCGAGACUACUGCUUCGGCAGUAGUCUCGAGAAGGCACAUGAGGAUCACCCAUGUGAUCA [E4/2-A1] (Eterna round: R97, puzzle: Exclusion 4) | – | – | – | 56.6 | – | 685 |
| AUACCACGAGGAUAUCGACUAUACCACAUGAGGAUCACCCAUGUUAUCCAUGUUUCGUUUCGAGAAGGCGUGGGUU [JR_E5_Sub073] (puzzle: Exclusion 5) | – | 32.3 | – | – | – | – |
| AUAGAUCGAGUUAGGAUAUUGCAGGCCGAGUACAGCAAGAAGGAACAUGAGGAUCACCCAUGUAAACGUGGCUC [Eternabot (L1) Solution 53] (Eterna round: R97, puzzle: Brourd's mod of Exclusion 4) | – | – | – | 25.9 | – | 17.7 |
| AUAGGAGGAGGAUAUACAUGAGGAUCACCCAUGUGAUCGCCGUAAAAUGCAGUUAGACGUAGAAGGUCUCCCGG [Eternabot (L2) Solution 77] (Eterna round: R97, puzzle: Exclusion 3) | – | – | – | 36.8 | – | 34.7 |
| AUAUAGAUAGUCAGGAUAUGCUAGUGAUAACAGUAGCAGAAGGGACAUGAGGAUCACCCAUGUGGAUAGCGCAC [Brourd's EX4 #5] (Eterna round: R97, puzzle: Brourd's mod of Exclusion 4) | – | – | – | 139 | – | 39.7 |
| AUAUAGAUGGUCAGGAUAUGCUAGUGAUAACAGUAGCAGAAGGGACAUGAGGAUCACCCAUGUGGAUACCGCAC [Brourd's EX4 #7] (Eterna round: R97, puzzle: Brourd's mod of Exclusion 4) | – | – | – | 122 | – | 31.9 |
| AUAUUAAUAGUAAGGAUAUGCGUAUAUAUAAUUAUGCAGAAGGUACAUGAGGAUCACCCAUGUAUUAAUGUGUA [LRO-BmodExc4-02-Oppy's Opus] (Eterna round: R97, puzzle: Brourd's mod of Exclusion 4) | – | – | – | 13.5 | – | 13 |
| AUAUUAAUAUAGGAUAUCGAAUUUAUUAAUUAUCGAGAAGGAUAAACAUGAGGAUCACCCAUGUGGUAUCAUGG [Mat - Exclusion 6 - JL Mod - D39] (puzzle: Exclusion 6) | – | 256 | – | – | – | – |
